Data as given in paper PMC12086512 (Protein Science : A Publication of the Protein Society, 2025).

Assays:
[1] = target: His-p67C (p67 residues 572-651) (Theileria parva, strain not told, UniProt Q4MZ78); experiment: ELISA
[2] = target: ubiquitin (Homo sapiens (assumed; species not …, UniProt P0CG48); experiment: ELISA
[3] = target: bovine serum albumin (Bos taurus, UniProt P02769); experiment: ELISA
[4] = target: T1, p67C^1 (p67 residues 572-612) (Theileria parva, UniProt Q4MZ78); experiment: ELISA
T1 chain: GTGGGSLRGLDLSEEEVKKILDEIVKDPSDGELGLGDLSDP

[5] = target: full-length p67 of Theileria parva with a C-terminal His-tag (Theileria parva, strain not told, UniProt Q4MZ78); experiment: BLI
[6] = target: the fusion tag (GST) (Schistosoma japonicum (assumed, usual …, UniProt P08515 = GST)); experiment: ELISA

Chain of bovine serum albumin (P02769 25-607): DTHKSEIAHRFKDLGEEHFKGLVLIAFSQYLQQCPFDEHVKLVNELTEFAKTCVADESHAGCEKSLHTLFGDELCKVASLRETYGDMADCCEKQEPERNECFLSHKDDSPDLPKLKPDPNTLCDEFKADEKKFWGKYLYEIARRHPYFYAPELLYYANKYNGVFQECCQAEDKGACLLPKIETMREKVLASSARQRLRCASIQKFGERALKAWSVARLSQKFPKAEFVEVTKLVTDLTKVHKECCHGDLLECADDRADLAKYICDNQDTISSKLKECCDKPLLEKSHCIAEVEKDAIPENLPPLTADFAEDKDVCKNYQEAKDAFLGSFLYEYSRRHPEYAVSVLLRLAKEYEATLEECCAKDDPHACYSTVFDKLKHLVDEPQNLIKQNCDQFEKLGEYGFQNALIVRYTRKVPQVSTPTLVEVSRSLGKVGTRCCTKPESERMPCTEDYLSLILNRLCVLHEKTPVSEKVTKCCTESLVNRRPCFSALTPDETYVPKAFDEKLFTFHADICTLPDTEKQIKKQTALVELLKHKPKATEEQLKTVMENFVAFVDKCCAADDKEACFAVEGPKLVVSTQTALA

B1: Fab B11 (Fab, V domains shown)
VH: EVQLVESGGGLVQPGGSLRLSCAASGFNISSSSIHWVRQAPGKGLEWVASISPYYSSTSYADSVKGRFTISADTSKNTAYLQMNSLRAEDTAVYYCARGPGYAMDYWGQGTLVTVSS
VL: DIQMTQSPSSLSASVGDRVTITCRASQSVSSAVAWYQQKPGKAPKLLIYSASSLYSGVPSRFSGSRSGTDFTLTISSLQPEDFATYYCQQYYYAPITFGQGTKVEIK
[1]
  EC50: 25 nM
[2]
  binding result: no binding
[3]
  binding result: no binding
[4]
  binding result: binds
[5]
  Kd: 79 nM

B2: Fab B11 displayed on phage (Fab, V domains shown)
VH: B1 VH
VL: B1 VL
[6]
  binding result: no binding
